B1: HLIAEIHTA (SEQ ID NO: 9) (peptide)
peptide: HLIAEIHTA
notes: synthetic peptide; source gene PTHLH; also called PTHL-001

target: T1, HLA-A*02:01 (peptide-receptive MHC class I molecule of the UV-ligand exchange assay) (human); assay: UV-ligand exchange, anti-b2m ELISA; peptide exchange yield grade (>=10% = +; >=20% = ++; >=50 = +++; >=75% = ++++)
T1 construct: MHC monomer first loaded with a UV-sensitive peptide (not identified) that is cleaved by UV light and exchanged for the test peptide; captured on streptavidin plates
Text: Candidate peptides for T cell based therapies according to the present invention were further tested for their MHC binding capacity (affinity). The individual peptide-MHC complexes were produced by UV-ligand exchange, where a UV-sensitive peptide is cleaved upon UV-irradiation, and exchanged with the peptide of interest as analyzed. Only peptide candidates that can effectively bind and stabilize the peptide-receptive MHC molecules prevent dissociation of the MHC complexes. To determine the yield of the exchange reaction, an ELISA was performed based on the detection of the light chain (β2m) of stabilized MHC complexes. The assay was performed as generally described in Rodenko et al. (Rodenko et al., 2006).
96 well MAXISorp plates (NUNC) were coated aver night with 2 ug/ml streptavidin in PBS at room temperature, washed 4× and blocked for 1 h at 37° C. in 2% BSA containing blocking buffer. Refolded HLA-A*02:01/MLA-001 monomers served as standards, covering the range of 15-500 ng/ml. Peptide-MHC monomers of the UV-exchange reaction were diluted 100 fold in blocking buffer. Samples were incubated for 1 h at 37° C., washed four times, incubated with 2 ug/ml HRP conjugated anti-02m for 1 h at 37° C., washed again and detected with TMB solution that is stopped with […]. Absorption was measured at 450 nm. Candidate peptides that show a high exchange yield (preferably higher than 50%, most preferred higher than 75%) are generally preferred for a generation and production of antibodies or fragments thereof, and/or T cell receptors or fragments thereof, as they show sufficient avidity to the MHC molecules and prevent dissociation of the MHC complexes.

Row | peptide exchange yield [%] | Binder
1 | 50 to 75 | SLDENSDQQV (synthetic peptide; source gene S100A2) [SLDENSDQQV (SEQ ID NO: 10)]
2 | 50 to 75 | SIYEYYHAL (synthetic peptide; source gene HIF1A) [SIYEYYHAL (SEQ ID NO: 90)]
3 | 50 to 75 | AVLPHVDQV (synthetic peptide; source gene KIAA0947) [AVLPHVDQV (SEQ ID NO: 81)]
4 | 20 to 50 | SLADSLYNL (synthetic peptide; source gene CAMSAP2) [SLADSLYNL (SEQ ID NO: 89)]
5 | 50 to 75 | ILASLATSV (synthetic peptide; source gene TUBGCP2) [ILASLATSV (SEQ ID NO: 74)]
6 | 50 to 75 | FLDNGPKTI (synthetic peptide; source gene EIF4G2) [FLDNGPKTI (SEQ ID NO: 87)]
7 | ≥ 75 | KLIDDVHRL (synthetic peptide; source gene SRPR) [KLIDDVHRL (SEQ ID NO: 91)]
8 | 50 to 75 | HLLGHLEQA (synthetic peptide; source gene PRDM15) [HLLGHLEQA (SEQ ID NO: 82)]
9 | 20 to 50 | KVANIIAEV (synthetic peptide; source gene RAP1GDS1) [KVANIIAEV (SEQ ID NO: 78)]
10 | 20 to 50 | ALQEALENA (synthetic peptide; source gene NUP155) [ALQEALENA (SEQ ID NO: 80)]
11 | 50 to 75 | ALLDGGSEAYWRV (synthetic peptide; source gene FAM83A) [ALLDGGSEAYWRV (SEQ ID NO: 8)]
12 | 20 to 50 | VLVPYEPPQV (synthetic peptide; source gene TP63) [VLVPYEPPQV (SEQ ID NO: 77)]
13 | 20 to 50 | GQDVGRYQV (synthetic peptide; source gene SSR4) [GQDVGRYQV (SEQ ID NO: 79)]
14 | ≥ 75 | NIIELVHQV (synthetic peptide; source gene SYK) [NIIELVHQV (SEQ ID NO: 85)]
15 | 50 to 75 | B1
16 | 50 to 75 | SLAESLDQA (synthetic peptide; source gene DIS3) [SLAESLDQA (SEQ ID NO: 84)]
17 | 50 to 75 | KITEAIQYV (synthetic peptide; source gene RORA) [KITEAIQYV (SEQ ID NO: 73)]
18 | 50 to 75 | VLINTSVTL (synthetic peptide; source gene ZNF292) [VLINTSVTL (SEQ ID NO: 93)]
19 | 50 to 75 | KVADYIPQL (synthetic peptide; source gene GLS) [KVADYIPQL (SEQ ID NO: 76)]
20 | 20 to 50 | SILRHVAEV (synthetic peptide; source gene EIF2S1) [SILRHVAEV (SEQ ID NO: 92)]
21 | 50 to 75 | ALADGVVSQA (synthetic peptide; source gene GPKOW) [ALADGVVSQA (SEQ ID NO: 83)]
